For three substances, Kd, Ki and stoichiometry N results are on record in article PMC7948760.

A word on the Kd: it is a measure of binding affinity in units of concentration. A word on the Ki: it is a dissociation constant, usually derived from enzyme kinetics or from competition with a known ligand. Low readings indicate higher affinity, high ones lower affinity. Usually stoichiometry N stands for the number of molecules, sites or subunits per partner or assembly.

Read-outs that look alike come from different tables or passages of the source.

For assay [1], the target named is FV-short-QQ (FV-short with Arg709 and Arg1545 replaced with Gln) (human). Briefly: fluorescence polarisation; competition: unlabeled TFPIα-BR (0–2 μM) or TFPIα (0–1 μM) titrated into 25 nM OG488-TFPIα-BR, 20 nM FV-short-QQ and 50 μM PCPS, assay buffer, 25 °C; stoichiometry of 1 assumed. (In general: Fluorescence polarisation rises when a labelled molecule tumbles more slowly, as on binding a larger partner.)

For assay [2], the target named is FV-short (factor V isoform with B-domain residues 756 to 1458 deleted) (human). Briefly: inhibition of prothrombinase (prothrombin activation assay); 0.1 nM cofactor species, 50 μM PCPS, 1.4 μM prothrombin, 3 μM DAPA, TFPIα 0–500 nM with a twofold excess of anti-K2 antibody to block FXa inhibition, started with 2 nM FXa, assay buffer, 25 °C; Ki from the equation for competitive inhibition.

The target of assay [3] is FV-short-QQ (FV-short with Arg709 and Arg1545 replaced with Gln) (human). The description is as above.
Assay [4] concerns the target FV-short-QR∗ (FV-short-QR precleaved at Arg1545 with RVV-V) (human) (UniProt P12259). The description is as above.
Assay [5] deals with FV-short-RQ∗ (FV-short-RQ precleaved at Arg709 with thrombin) (human) (UniProt P12259). Described as above.
Assay [6] addresses activated factor V (FVa) (human) (UniProt P12259). Described as above.
Assay [7] concerns the target FV-short (factor V isoform with B-domain residues 756 to 1458 deleted) (human). The description is as above. This is another data set of the same source.
Assay [8] has as its target FV-short-QQ (FV-short with Arg709 and Arg1545 replaced with Gln) (human). The description is as above. This is another data set of the same source.
For assay [9], the target named is FV-short-RQ∗ (FV-short-RQ precleaved at Arg709 with thrombin) (human) (UniProt P12259). Described as above. The source holds these as a separate data set.
The target in the next assay is TFPIα (Homo sapiens) (UniProt P10646). Description: SPR. Conditions: cited from earlier work.
Assay [10] has as its target OG488-TFPIα-BR, TFPIα-BR modified with Oregon Green488 maleimide (human). Briefly: fluorescence polarisation; steady-state anisotropy; FV species (0–100 nM) titrated into 20 nM OG488-TFPIα-BR and 50 μM PCPS, assay buffer (20 mM HEPES, 0.15 M NaCl, 5 mM CaCl2, 0.1% PEG 8000, pH 7.4), 25 °C; fit to independent, noninteracting sites.

FV-short-RQ∗ (FV-short-RQ precleaved at Arg709 with thrombin) (human), sequence (P12259 29-737, chain 1 of 2): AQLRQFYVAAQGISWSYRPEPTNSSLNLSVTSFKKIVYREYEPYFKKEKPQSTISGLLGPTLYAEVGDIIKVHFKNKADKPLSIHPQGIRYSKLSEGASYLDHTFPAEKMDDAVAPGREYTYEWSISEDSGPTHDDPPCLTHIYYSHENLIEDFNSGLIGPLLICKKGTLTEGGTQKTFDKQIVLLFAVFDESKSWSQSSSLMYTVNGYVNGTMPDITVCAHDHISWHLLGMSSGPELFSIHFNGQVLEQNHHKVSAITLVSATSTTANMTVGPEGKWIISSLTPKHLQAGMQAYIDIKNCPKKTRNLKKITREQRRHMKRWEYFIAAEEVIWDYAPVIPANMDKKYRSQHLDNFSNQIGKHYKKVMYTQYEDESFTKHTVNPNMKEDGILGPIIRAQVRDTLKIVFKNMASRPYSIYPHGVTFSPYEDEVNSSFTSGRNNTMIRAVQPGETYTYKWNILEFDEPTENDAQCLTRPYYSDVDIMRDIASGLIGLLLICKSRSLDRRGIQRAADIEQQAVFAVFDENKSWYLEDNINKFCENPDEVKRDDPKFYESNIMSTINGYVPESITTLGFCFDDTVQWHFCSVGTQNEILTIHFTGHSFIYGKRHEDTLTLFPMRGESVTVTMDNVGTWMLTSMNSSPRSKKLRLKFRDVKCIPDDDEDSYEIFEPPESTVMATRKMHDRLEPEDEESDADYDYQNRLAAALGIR
FV-short-RQ∗ (FV-short-RQ precleaved at Arg709 with thrombin) (human), sequence (P12259 other isoform, or with tags, fused parts or gaps, chain 2 of 2): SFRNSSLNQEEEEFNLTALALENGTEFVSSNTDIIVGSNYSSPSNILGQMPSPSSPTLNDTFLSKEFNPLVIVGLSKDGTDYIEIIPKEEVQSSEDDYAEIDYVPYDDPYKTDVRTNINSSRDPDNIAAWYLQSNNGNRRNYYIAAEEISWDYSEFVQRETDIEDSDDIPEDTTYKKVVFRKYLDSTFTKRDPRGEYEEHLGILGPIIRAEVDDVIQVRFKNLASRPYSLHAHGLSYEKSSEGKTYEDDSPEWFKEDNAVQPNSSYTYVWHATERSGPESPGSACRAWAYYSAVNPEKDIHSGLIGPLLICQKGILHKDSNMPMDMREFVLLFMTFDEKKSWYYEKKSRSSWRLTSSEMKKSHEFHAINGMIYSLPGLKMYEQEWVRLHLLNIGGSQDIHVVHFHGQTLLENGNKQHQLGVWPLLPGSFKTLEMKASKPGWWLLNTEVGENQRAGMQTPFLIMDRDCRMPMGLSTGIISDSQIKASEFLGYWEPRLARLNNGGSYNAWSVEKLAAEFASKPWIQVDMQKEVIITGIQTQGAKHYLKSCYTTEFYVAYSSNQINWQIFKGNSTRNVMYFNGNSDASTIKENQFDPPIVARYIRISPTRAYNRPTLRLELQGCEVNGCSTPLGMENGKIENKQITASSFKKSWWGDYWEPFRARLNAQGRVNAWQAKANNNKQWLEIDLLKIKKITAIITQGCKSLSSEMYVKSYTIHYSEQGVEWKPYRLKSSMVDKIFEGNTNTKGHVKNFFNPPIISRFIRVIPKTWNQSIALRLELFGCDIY
activated factor V (FVa) (human), sequence (P12259 29-737, chain 1 of 2): as the sequence (P12259 29-737, chain 1 of 2) above
activated factor V (FVa) (human), sequence (P12259 1574-2224, chain 2 of 2): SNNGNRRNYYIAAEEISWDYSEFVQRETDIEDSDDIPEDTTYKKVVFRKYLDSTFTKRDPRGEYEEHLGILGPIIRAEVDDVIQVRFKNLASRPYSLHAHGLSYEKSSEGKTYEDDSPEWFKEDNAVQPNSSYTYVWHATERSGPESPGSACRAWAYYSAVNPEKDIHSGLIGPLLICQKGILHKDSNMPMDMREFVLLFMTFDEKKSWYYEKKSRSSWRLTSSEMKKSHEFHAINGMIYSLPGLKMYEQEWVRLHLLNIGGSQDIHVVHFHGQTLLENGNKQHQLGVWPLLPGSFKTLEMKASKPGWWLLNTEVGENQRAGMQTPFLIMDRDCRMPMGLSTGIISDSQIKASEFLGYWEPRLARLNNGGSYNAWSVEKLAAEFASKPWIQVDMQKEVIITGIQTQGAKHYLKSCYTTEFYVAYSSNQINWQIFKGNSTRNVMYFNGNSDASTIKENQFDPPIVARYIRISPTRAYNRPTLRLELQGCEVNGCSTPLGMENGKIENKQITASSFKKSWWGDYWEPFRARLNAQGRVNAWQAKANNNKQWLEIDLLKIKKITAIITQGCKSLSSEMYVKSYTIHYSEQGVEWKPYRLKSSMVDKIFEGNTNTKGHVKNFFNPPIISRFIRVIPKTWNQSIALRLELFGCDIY
factor V, sequence (P12259 1574-2224): as the sequence (P12259 1574-2224, chain 2 of 2) above
TFPIα (Homo sapiens), sequence (P10646 29-304): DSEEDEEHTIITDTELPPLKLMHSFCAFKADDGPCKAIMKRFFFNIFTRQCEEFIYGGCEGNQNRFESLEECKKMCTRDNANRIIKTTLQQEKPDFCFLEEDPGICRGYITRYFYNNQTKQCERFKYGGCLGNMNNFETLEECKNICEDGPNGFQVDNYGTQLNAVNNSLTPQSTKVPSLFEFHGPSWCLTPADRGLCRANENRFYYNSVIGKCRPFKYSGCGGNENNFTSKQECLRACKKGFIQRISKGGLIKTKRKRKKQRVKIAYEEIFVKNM
FV-short-QR∗ (FV-short-QR precleaved at Arg1545 with RVV-V) (human), sequence (P12259 other isoform, or with tags, fused parts or gaps, chain 1 of 2): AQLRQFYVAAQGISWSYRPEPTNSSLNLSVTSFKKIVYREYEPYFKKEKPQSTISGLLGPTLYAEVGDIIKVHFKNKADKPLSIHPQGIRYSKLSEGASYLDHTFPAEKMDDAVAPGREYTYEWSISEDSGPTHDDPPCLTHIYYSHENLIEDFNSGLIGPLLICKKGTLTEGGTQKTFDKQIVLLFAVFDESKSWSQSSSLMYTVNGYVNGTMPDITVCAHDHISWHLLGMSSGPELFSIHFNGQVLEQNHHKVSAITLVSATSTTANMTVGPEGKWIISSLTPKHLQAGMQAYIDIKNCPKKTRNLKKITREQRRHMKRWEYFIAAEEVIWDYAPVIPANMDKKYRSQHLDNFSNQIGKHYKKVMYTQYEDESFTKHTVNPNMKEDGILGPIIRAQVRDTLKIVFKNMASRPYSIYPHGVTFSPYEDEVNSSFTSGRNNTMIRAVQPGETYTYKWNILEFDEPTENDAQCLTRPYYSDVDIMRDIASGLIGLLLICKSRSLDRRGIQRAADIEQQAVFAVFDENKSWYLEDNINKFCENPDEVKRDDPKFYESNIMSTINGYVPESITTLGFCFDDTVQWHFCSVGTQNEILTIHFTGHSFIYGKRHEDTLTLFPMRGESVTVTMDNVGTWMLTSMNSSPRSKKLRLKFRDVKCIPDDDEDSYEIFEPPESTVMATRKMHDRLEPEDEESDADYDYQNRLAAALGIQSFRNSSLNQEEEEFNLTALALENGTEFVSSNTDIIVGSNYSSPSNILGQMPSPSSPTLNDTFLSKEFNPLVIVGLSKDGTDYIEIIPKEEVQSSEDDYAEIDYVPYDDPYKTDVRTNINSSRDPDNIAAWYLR
FV-short-QR∗ (FV-short-QR precleaved at Arg1545 with RVV-V) (human), sequence (P12259 1574-2224, chain 2 of 2): as the sequence (P12259 1574-2224, chain 2 of 2) above

In [1], “tissue factor pathway inhibitor alpha (TFPIα), full-length (from UniProt P10646-1 29-304) (natural protein)” came in with a Kd of 0.73 nM. Moreover, the Ki is 0.23 nM in assay [2]; 0.11 nM in [3]; more than 500 nM in assay [4]; 0.24 nM in assay [5]; more than 500 nM in [6]; 0.14 nM in [7]. The Ki is 0.1 nM in assay [8] and 0.26 nM in assay [9].
For factor V (from UniProt P12259), in the assay with TFPIα (Homo sapiens), the Kd is 13 nM.
The substance “FV-short (factor V isoform with B-domain residues 756 to 1458 deleted) (natural protein)” had a stoichiometry N in assay [10] of 1.25.
